Test results reported in patent US20260201033A1 (LTZ THERAPEUTICS, published 2026).
One block for each binder: values may come before it.

Assays:
[1] = biological target: T1, Human C-type lectin domain family 5 member A (CLEC5A), endogenous on human monocytes and M0 macrophages (human, UniProt Q9NY25 1-188); experiment: flow cytometry on human M0 macrophages, anti-human IgG PE
T1 construct: Endogenous CLEC5A on primary human monocytes and monocyte-derived M0 macrophages; also called MDL-1; M0 macrophages (CLEC5A+) cells
T1 sequence: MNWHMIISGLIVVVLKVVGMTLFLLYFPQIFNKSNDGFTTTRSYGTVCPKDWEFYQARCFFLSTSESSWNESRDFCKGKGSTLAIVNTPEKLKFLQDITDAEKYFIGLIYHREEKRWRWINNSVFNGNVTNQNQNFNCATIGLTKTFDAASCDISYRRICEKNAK
Description: About 50,000 M0 macrophages were incubated with serially diluted antibodies in FACS buffer (PBS+0.5% BSA) for 30 minutes on ice. […] For analysis, the mean fluorescence intensity (MFI of PE) of each antibody was determined and plotted using GraphPad Prism software (Version 9.4.1; GraphPad Software Inc.).

[2] = biological target: T2, Human CLEC5A His Tag protein (ACROBiosystems, Cat #: CLA-H5243) (human, UniProt Q9NY25 28-188, limits assumed); experiment: ELISA, plate coated with human CLEC5A
T2 construct: Bought protein with a His tag; also called recombinant human CLEC5A protein
T2 sequence: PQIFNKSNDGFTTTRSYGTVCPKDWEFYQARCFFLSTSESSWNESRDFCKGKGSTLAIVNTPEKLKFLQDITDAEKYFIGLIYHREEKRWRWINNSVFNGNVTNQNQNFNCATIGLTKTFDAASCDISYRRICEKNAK
Description: Protein antigen was aspirated, and wells were washed 3 times with 400 μL of wash buffer (0.05% Tween® 20 in PBS) using a plate washer. Anti-CLEC5A antibodies were prepared as the primary antibody at 5 μg/mL and serially diluted 3-fold through 11 points (diluted concentrations) with reagent buffer (PBS+0.05% BSA). 100 μL of primary antibody was added to appropriate wells and incubated for 1 hour at room temperature. Primary antibody was aspirated, and wells were washed 3 times with 400 μL of wash buffer (0.05% Tween® 20 in PBS) using a plate washer. […] Secondary antibody was aspirated, and wells were washed 3 times with 400 μL of wash buffer (0.05% Tween® 20 in PBS) using a plate washer. […] 100 μL of Fisher 1N Sulfuric Acid (Cat #: SA212-2) stop solution was added to each well and the plate was read in a plate reader at 450 nm. For analysis, OD450 of each antibody was plotted using GraphPad Prism software (Version 9.4.1; GraphPad Software Inc.).

[3] = biological target: T3, recombinant human CLEC5A, His Tag (ACROBiosystems, Cat #: NC1-H52H4) (human, UniProt Q9NY25 28-188); experiment: BLI, antibody 10 ug/ml captured on anti-human IgG Fc probe, analyte hCLEC5a; table row hCLEC5a 3.12 nM; all four rows print the same value
T3 construct: Analyte of the BLI assay; Its catalogue number differs from that of the ELISA antigen; also called human CLEC5A (BLI analyte)
T3 sequence: T2 sequence

[4] = biological target: T3, recombinant human CLEC5A, His Tag …; experiment: BLI, antibody 10 ug/ml captured on anti-human IgG Fc probe, analyte hCLEC5a; table row hCLEC5a 0.78 nM; all four rows print the same value
[5] = biological target: T3, recombinant human CLEC5A, His Tag …; experiment: BLI, antibody 10 ug/ml captured on anti-human IgG Fc probe, analyte hCLEC5a; table row hCLEC5a 1.56 nM; all four rows print the same value
[6] = biological target: T3, recombinant human CLEC5A, His Tag …; experiment: BLI, antibody 10 ug/ml captured on anti-human IgG Fc probe, analyte hCLEC5a; table row hCLEC5a 6.25 nM; all four rows print the same value

B1: 6G9, chimeric rabbit/human IgG1 anti-CLEC5A antibody (Fc-silenced) (antibody, V domains shown)
VH: QSLEESGGDLVKPGASLTLTCTASGFSFTSNKYMCWVRQAPGKGPEWIACIYVGDGNTYYASWAKGRFTISKTSSTTVTLQMTSLTVADTATYFCARGGDYSIGGGGFASNLWGPGTLVTVSS
VL: AFELTQTPSSVEAAVGGTVTINCQASESISNFLAWYRQKPGQPPKLLIYRASTLASGVSSRFKGSGSGTEFTLTISDLEPADGASYYCQSYYGTSSTGHNVFGGGTEVVVK
notes: also called ch6G9
EC50 [1]: 6.84 nM

B2: 7G10, chimeric rabbit/human IgG1 anti-CLEC5A antibody (Fc-silenced) (antibody, V domains shown)
VH: QQQLEESGGGLVKPGGTLTLTCKASGFSFSSGYDMCWVRQAPGKGLEWIACIYGGRSDNVYYARWAKGRFTISKTSSTTVTLQMTSLTAADTATYFCARDYLYRGYIGGGYGRSNLWGPGTLVTVSS
VL: DVVMTQTPASVSAAVGGTVTINCRASEDIENCLAWYQQKPGQPPKLLIYQASKLPSGVPSRFSGSGSGTEYTLTISDLEPDDGATYYCQNPDYMRNTDNLFGGGTEVVVK
notes: also called ch7G10
EC50 [2]: 0.16 nM
EC50 [1]: 2.06 nM

B5: 13E6, chimeric rabbit/human IgG1 anti-CLEC5A antibody (Fc-silenced) (antibody, V domains shown)
VH: QSLEESGGDLVKPGGTLTLTCTASGFSFSSSYWLCWVRQAPGKGLEWIACIYGGSSRGTYYASWAKGRFTISKTSSTTVTLQMTSLTAADTATYFCASHTYTYPRFSPYFNLWGPGTLVSVSS
VL: AFEMTQTPASVSPAVGGTVSINCQASEDIESSLAWYQQKPGQPPKLLIYDASDLESGVPSRFKGSGSGTEYTLTISGVQPADAATYFCQSAYYTGSADNTFGGGTEVVVK
notes: also called ch13E6
EC50 [2]: 0.61 nM
EC50 [1]: 2.57 nM

The remaining binders from weak to strong by EC50 [1], led by results:

EC50 [1]: 1.59 nM
B4: 9E11, chimeric rabbit/human IgG1 anti-CLEC5A antibody (Fc-silenced) (antibody, V domains shown)
VH: QSLEESGGGLVQPEGSLTLTCTASGFDLNNYYYMCWVRQAPGKGLEWIACTHAGSSSSSYYARWAKGRFTISKTSSTTVTLQMTSLTAADTATYFCARHDRDYDDMDLWGPGTLVTVSS
VL: NIVMTQTTSPVSAVVGGTITINCQASQSIEYGYLSWYQQKPGQPPKLLIFYASKLASGVPSRFSGSGSGTQFTLTISGVQPDDAATYFCLYGYFDDYSGAAFGGGTEVVVK
notes: also called ch9E11

EC50 [2]: 0.71 nM
EC50 [1]: 0.96 nM
Kd [3]: 0.0631 nM
koff [3]: 8.96e-05 s⁻¹
kon [3]: 1.42e+06 M⁻¹ s⁻¹
Kd [4]: 0.0631 nM
koff [4]: 8.96e-05 s⁻¹
kon [4]: 1.42e+06 M⁻¹ s⁻¹
Kd [5]: 0.0631 nM
koff [5]: 8.96e-05 s⁻¹
kon [5]: 1.42e+06 M⁻¹ s⁻¹
Kd [6]: 0.0631 nM
koff [6]: 8.96e-05 s⁻¹
kon [6]: 1.42e+06 M⁻¹ s⁻¹
B3: 3A7, chimeric rabbit/human IgG1 anti-CLEC5A antibody (Fc-silenced) (antibody, V domains shown)
VH: QSLEESGGDLVKPGASLTLTCTASGFSFSGMYWICWVRQAPGKGLEWIACIYTGSSTTGYASWAKGRFTISKTSSTTVTLQMTSLTAADTATHFCASPYGDSSHYRGLNLWGPGTLVTVSS
VL: AVVMTQTPASVEAAVGGTVTINCQASQRINNYLSWFQQKPGQPPKLLIYGAATLASGVPSRFKGSGSGTEYTLTISDLEPADAATYYCQCTYGIPSSNYGFGGGTEVVVK
notes: also called ch3A7
